# Target: SP1 (recombinant, purified, Promega) (UniProt P08047 2-785)
# Assay: EMSA
# Chain of SP1 (recombinant, purified, Promega) (P08047 2-785): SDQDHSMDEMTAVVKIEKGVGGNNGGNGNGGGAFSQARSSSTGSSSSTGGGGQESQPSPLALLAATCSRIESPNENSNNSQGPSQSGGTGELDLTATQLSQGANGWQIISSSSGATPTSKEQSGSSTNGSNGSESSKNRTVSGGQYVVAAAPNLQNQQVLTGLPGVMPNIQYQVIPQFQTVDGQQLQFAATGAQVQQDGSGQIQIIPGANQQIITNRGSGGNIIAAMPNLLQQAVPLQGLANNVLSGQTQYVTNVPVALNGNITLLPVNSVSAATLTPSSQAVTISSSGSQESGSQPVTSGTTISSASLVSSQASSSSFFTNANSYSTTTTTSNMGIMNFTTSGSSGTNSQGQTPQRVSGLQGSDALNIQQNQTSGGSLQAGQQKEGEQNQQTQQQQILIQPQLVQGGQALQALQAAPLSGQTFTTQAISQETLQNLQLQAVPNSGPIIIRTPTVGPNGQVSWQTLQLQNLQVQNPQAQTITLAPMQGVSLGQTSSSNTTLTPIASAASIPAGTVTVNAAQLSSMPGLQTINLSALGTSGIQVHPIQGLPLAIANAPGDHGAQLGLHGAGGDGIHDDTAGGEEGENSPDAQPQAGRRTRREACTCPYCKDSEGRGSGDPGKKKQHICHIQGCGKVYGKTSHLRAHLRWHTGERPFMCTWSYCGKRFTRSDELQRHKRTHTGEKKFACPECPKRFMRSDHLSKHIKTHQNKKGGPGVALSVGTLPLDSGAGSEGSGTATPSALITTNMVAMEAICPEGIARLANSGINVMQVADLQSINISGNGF
row,Binder,binding result
1,"Sp1 (-268) methylated (Sp1-2 M) (dsDNA, 5-methylcytosine (printed mC): strand 1 C5,C11,C16,C21,C24; strand 2 C3,C8,C13,C19) DNA 1: TTCTCGTCCCCGCCCCGTCCCGCC DNA 2: GGCGGGACGGGGCGGGGACGAGAA",no binding
2,Sp1 (-268) unmethylated (Sp1-2) (dsDNA) DNA 1: TTCTCGTCCCCGCCCCGTCCCGCC DNA 2: GGCGGGACGGGGCGGGGACGAGAA,binds
3,"Sp1 (-346) methylated (Sp1-1 M) (dsDNA, 5-methylcytosine (printed mC): strand 1 C10,C15,C17,C20,C24; strand 2 C4,C7,C9,C14) DNA 1: TCCACCCTCCGCCCCGCGCCGTCC DNA 2: GGACGGCGCGGGGCGGAGGGTGGA",no binding
4,Sp1 (-346) unmethylated (Sp1-1) (dsDNA) DNA 1: TCCACCCTCCGCCCCGCGCCGTCC DNA 2: GGACGGCGCGGGGCGGAGGGTGGA,binds

# Reference: paper PMC2710387
